Reference: publication PMC6017339, “A Turn-on Fluorescence Sensor for Heparin Detection Based on a Release of Taiwan Cobra Cardiotoxin from a DNA Aptamer or Adenosine-Based Molecular Beacon”

Target: T1, cardiotoxin 3 (CTX3) (Naja naja atra (Taiwan cobra), UniProt P60301 22-81)
T1 sequence: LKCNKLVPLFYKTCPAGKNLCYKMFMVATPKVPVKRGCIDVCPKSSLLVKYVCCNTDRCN
Experiment: fluorescence quenching titration; 20 nM aptamer; >80% quenching, saturated at 400 nM CTX3; 10 mM HEPES pH 8.0, 30 C, 5 min incubation, no added salt stated; 20 nM aptamer or 10 nM MB
Settings: protein: native; label: 5'-FAM; 3'-DABCYL

GCGAGGTGTTCGAGAGTTAGGGGCGACATGACCAAACGTT (ssDNA) [DNA aptamer against CTX3]
binding result: binds
